Source: PMC2115223

Molecular target: diphtheria toxin receptor (14.5-kD protein of Vero cells) (African green monkey (endogenous in Vero))
Experiment: radioligand binding

Chain of diphtheria toxin receptor (14.5-kD protein of Vero cells) (African green monkey (endogenous in Vero)) (Q09118 20-208 limits assumed): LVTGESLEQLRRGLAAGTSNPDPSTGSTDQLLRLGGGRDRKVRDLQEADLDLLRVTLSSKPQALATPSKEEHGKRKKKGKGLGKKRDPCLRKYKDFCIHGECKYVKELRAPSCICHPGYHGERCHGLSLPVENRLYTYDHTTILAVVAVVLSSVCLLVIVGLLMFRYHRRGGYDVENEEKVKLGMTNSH

Substance: CRM228 (natural protein)
- fold less potent than nicked CRM197 in competition: 200 times
